Test results taken from PMC7271195, “CX3CL1 homo-oligomerization drives cell-to-cell adherence” (Scientific Reports, 2020).
Where “and” joins values, the source holds several entries; their conditions need not be identical. Equal values may be shown once. Ends that are not written are not given here.

Legend:
[1] = biological target: TM24 peptide expressed as a EYFP fusion in COS cells; experiment: FRAP; TM24 as EYFP fusion in live COS-7 cells, 37 °C; diffusion rate compared with membrane proteins of known number of TM domains
[2] = biological target: the molecule itself; experiment: single-molecule photobleaching TIRF; L_(CX3CL1) membrane preparation diluted in excess DOPC, spread on a coverslip; stepwise bleaching of EYFP, 126 particles
[3] = biological target: the molecule itself; experiment: native gel or EMSA; plasma membranes of L_(CX3CL1) solubilised with CALX173ACE, CX3CL1 immuno-purified on anti-CX3CL1 beads, eluted by pH shock; clear native PAGE 4-15%, 4 °C, Western blot
[4] = biological target: the molecule itself; experiment: native gel or EMSA; L_(CX3CL1) cell lysate (40 µg total protein) solubilised in 1% DDM, NativePAGE Novex Bis Tris 3-12% gel, Western blot with anti-CX3CL1
[5] = biological target: the molecule itself; experiment: SDS-PAGE without cross-linker; 0.4 mg/ml peptide in DPC micelles, no BS3; SDS-PAGE, silver stain
[6] = biological target: the molecule itself; experiment: FRAP; FITC peptides in giant unilamellar vesicles of EggPC, 1000 lipids per peptide, PBS; lateral diffusion rate

## TM24 peptide expressed as a EYFP fusion in COS cells (domain or fragment)
[1]
  stoichiometry N: 7

B1: CX3CL1-EYFP fusion protein (L929 cells stably expressing CX3CL1-YFP) (natural protein, UniProt P78423 25-397, looked up)
chain: QHHGVTKCNITCSKMTSKIPVALLIHYQQNQASCGKRAIILETRQHRLFCADPKEQWVKDAMQHLDRQAAALTRNGGTFEKQIGEVKPRTTPAAGGMDESVVLEPEATGESSSLEPTPSSQEAQRALGTSPELPTGVTGSSGTRLPPTPKAQDGGPVGTELFRVPPVSTAATWQSSAPHQPGPSLWAEAKTSEAPSTQDPSTQASTASSPAPEENAPSEGQRVWGQGQSPRPENSLEREEMGPVPAHTDAFQDWGPGSMAHVSVVPVSSEGTPSREPVASGSWTPKAEEPIHATMDPQRLGVLITPVPDAQAATRRQAVGLLAFLGLLFCLGVAMFTYQSLQGCPRKMAGEMAEGLRYIPRSCGSNSYVLVPV
[2]
  stoichiometry N: 4.3 and 3 to 7 (2×)
[3]
  stoichiometry N: 5
[4]
  stoichiometry N: ~3

B2: TM24 peptide (transmembrane domain of CX3CL1 with two lysines at each end) (peptide)
peptide: KKVGLLAFLGLLFCLGVAMFTYKK
notes: two lysines added to ensure solubility; the 20 residues of the TM domain of CX3CL1; also called TM-CX3CL1 peptide; CX3CL1 transmembrane peptide; source: synthetic peptide
[5]
  stoichiometry N: 2

B3: TM24-FITC (peptide)
peptide: KKVGLLAFLGLLFCLGVAMFTYKK
modifications: also: FITC, position not given here
notes: two lysines added to ensure solubility; the 20 residues of the TM domain of CX3CL1; also called TM24 conjugated with fluorescein; source: synthetic peptide
[6]
  binding result: binds
